Test: yeast display, Sf9 membrane polyspecificity reagent, FACS + sequencing; frameworks hold sequencing errors
How it was run: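 Polyreactivity labels are assigned by the sorting gate from which each nanobody was recovered. The gates were low and high (top ~1%), set on anti-HA fluorescence for expression and streptavidin fluorescence for reagent binding. Before sorting, galactose-induced (36–48 hours) yeast display cells were stained for 1 hour at 4 °C with 10% biotinylated, detergent-solubilized Sf9 membrane reagent.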

Sequence	polyreactivity (PSR sort gate)
QVQLVESGGGLVQAGGSLRLSCAASGSTFIDYAMGWYRQAPGKERELVAGGSTNYADSVKGRFTISRDNAKNTVYLQMNSLKPEYTAVYYCNADALLYPYWGFDYWGQGTQVTVSS	low polyreactivity
QVQLVESGGGLVQAGGSLRLSCAASGSIISPNAMGWYRQAPGKERELVATISFSGGRTYYADSVKGLVTISRDNAKNTVYLQMNSLKPEDTAVYYCAKAYYYTDMDYWGQGTQVTVSS	low polyreactivity
QVQLVEAGLGLVQAGGSLRLSCAASGFIFVANAMVWYRQAPGKERELVAAISFSSTSTRYADSVKGRFTISRDNAKNTVYLQMNSLKPEDTAVYYCAVDLTFSEFDYWGQGTQVTVSS	low polyreactivity
QVQLVESGGGLVQAGGSLRLSCSASGTTFRGYAMGWYRQAPGKEREVVAAISNNGVTTYYADSVKGRFTISRDNAKNTVYLQMNSLKPEDAAVYYCAAGLYHGFAASDEIRGDYWGLGTQVTVSS	low polyreactivity
QVQLVESGGGLVQAGGSLRLSCAASGFIFTYYDMGWYRQAPGKERELVASISWDGGRTYYADSVKGRFTISRDNAKNTVYLQMNSLKPEDTAVYYCNADGSSYWYPVPLDGGDYWGQGTQVTVSS	low polyreactivity
QVQLVESGAGIVQAGGSLRLSCAASGSILWHNAMGWYRQAPGKEREYVDAISARGTRTYYADSVKGRFTISRDNAKNTVYLQLKSLNPEDTAVYYCAARYWDDRARAEDYWGQVTQVTVSS	high polyreactivity
QVQLVESGGGLVQAGGSLRLSCAASGFIFVYNDMGWYRQAPGKERELVASISNGDNTNYADSVKGRFTISRDNAKNTVYLQMNSLKPEDTAVYYCAARGTIYVLGVPARPVPDGDYWGQGTQVTVSS	low polyreactivity
QVQLVESGGGLVQAGGSLRLSCAASGRTFTQYAMRWYRQAPGKERELVAAISWRGGSTYYADSVKGRFTISRDNAKNTVYLQMNSLKPEDTAVYYCAKRYFRGYPLYDYWGQGTQVTVSS	high polyreactivity
QVQLVESGGGLVQAGGSLSLSCAASGSIFASNTMGWYRPAPGKERELVAGITKIGSSTYYADSVKGRFTISRDNAKNTVYLQMNSLKPEDTAVYYCNAYGPNIYSSRYDYWGQGTQVTVSS	low polyreactivity
QVQLQESGGGLVQVGGSLRLSCAASGTIFIYGFLGWNRQAQGKELELVASINLGGITNYADSVKGRFTISRDNAKNTLYLQMISLKTEDTAVYYCAAYVVTGQNYGYWGQGTQVTVSS	low polyreactivity
QVQLVESGGGLVQAGGSLRLSCAASGRTFLTYAMGWYRQAPGKERELVAAITDGDSTNYADSVKGRFTISRDNAKNTVYLQMNSLKPEDTAVYYCNADSLAYRYYYWGKGTQVTVSS	high polyreactivity
QFQLVESGGGLVQARGSLRLSCAASGRIFSWYAMGWYRQAPGKETELVAGLNRNGGSTYYPDSVKGRFTISRDNAKNTVYLQMNSQKPEDTAVYYCAKGQYYYTGDYDYWGQGTQVTVSS	high polyreactivity
QVQLVESGGGLVQAGGSHRLSCAASGSTFDYYAMGWYRQAPGKEREFVASINWNGARTYYADSVKGRFTNSRDNAKNTVYLQMNSLKPEDTAVYYCAKISRTYYRYDYWGQGTQVTVSS	high polyreactivity
QVQLVESGGGLVQAGGSLRLSCAASGLTFSYYTMGWYRPAPGKERELVAAITSSSGRTYYADSVKGRFSISRDNAKNTVYLQLNSLKPEDTAVYYCAADRWYREYDYWGLGTQVTVSS	low polyreactivity
QVQLVESAGGLVQAGGSLRLSCAASGYTLYLNAMGWYRQAPGKERELVARISGGGSTNYADSVKGRFTISRDNAKNTVYLQMNSLKPEDTAVYYCAASIFAYGYRSFQLDYWGQGTQVTVSS	low polyreactivity
QVQLVESGGGLVQAGGSLRLSCAASGRNLLGNAMGGYRQAPGKEREFVAAISYRGGSTYYADSVKGRFTISRDNEKNTVYLQMNSLKPVDNAVPYCAASSLKYSRFDYGGQGTQVTVSS	low polyreactivity
QVQLVESGAGLVQAGGSLRLSCAASGSIFGFYAMGWYRQAPGKERELVASISSSGDSTYYADSVKGRFTISRDNAKYTVYLPMNSLKPEDTAVYYCAAVVYDIYGYEFDYWGLGTQVTVSS	low polyreactivity
QGQLVESGGGLVQAGGSLRLSCAASGRTFYLNAMGWYRQAPGKERELVAAINRGTRTYYADSVKGRFTISRDNAKNTVFLQMNSLKPDETAVYYCASVPRYYYSSSYTMDYWGQGTQVTVSS	high polyreactivity
QVQLVESGGGLFQAGGSLRLSCAASGRTFGKNAMGWYRQAPGKEREFVAAITSRGGSTYYADSVKGRFTISRDNAKNTVYLQMNSLNPEDTGVYYCNREYKRPSQRNEHFYCGQGTQVTVSS	low polyreactivity
QVQLVESGGGLVHAGGSLRLSCAASGRIFGVYAMGWYRQAPGKERELVAAISEGGGSTNYADSVKGRFTISRDNAKNTVYLQMNSLKPEDTAVYYCAATYRTGVRRYYSWGQGTQVTVSS	low polyreactivity
QVQLVESGGGLVQAGGSLRLSCAASGSIFRYYAMGWYRQAPGKERELVARISRNAGRTYYADSVKGRFTISRDNAKNTVYLQMNSLKPEDTAVYYCAADGSKPYAMDYWGQGTQVTVSS	high polyreactivity
QVQLVESGGGLVQAGGSLRLSCAASGLIFRTYTMGWYRQAPGKERELVATITRRGGTTYYADSVKGRFTISRDNAKNTVYLQMKSLKPEDTAVYYCAKSPYYTWKYDYWGQGTQVTVSS	high polyreactivity

Sequence	polyreactivity (PSR sort gate)
QVQLVESGGGLVQAGGRLRLSCAASGSTSTLYAMGWYRQAPGKERELVAAISKSGGRTYYADSVKGRFTSSRDNAKNTVDLQMNSLKPEDTAVYYCAALAVYPRRFDYWGQGTQVTVSS	high polyreactivity
QVQLVESGGGLVQAGGSLRLSCAASGIIFYDYAMGWYRQAPGKERELVAAISTDAGSTYYADSVKGRFTISRDNAKNTVYLQMNSLKPEDTAVYYCNADEHSYSVSWDYEYDYWGQGTQVTVSS	high polyreactivity
QVQLVESGGGLVQAGGSLRLSCAASGFIFQYYAMGWYRQAPGKERELVAVIRSGGSTYYADSVKGRFTISRDNAKNTVYLQMNSLKPEDTAVYYCARPSRGPPRGYYWGHGTQVTVSS	high polyreactivity
QVQLVESGGGLVQAGGSLRLRCAASGIIFEYYAMGLYRQAPGKERELVAAITRGGTTYYADSVKGRFTISRDNAKNTVYLQMNSLKPEDTAVYYCNADSVAYGDEYDFWGQGTQVTVSS	low polyreactivity
QVQLVESGGGLVQAGGSLRLSCAASGRTLRGYAMGWYRQAPGKERELVAAITWSGGSTYYADSVKGRFTISRDNAKNTVYLQMNSLKPEDTAVYYCNARSYPDLYDYWGQGTQVTVSS	low polyreactivity
QVQLVESGGGLVQAGGSLRLSCAASGSIFSRYAMGWYRQAPGKERELVAAISRRRGTTYYADSVKGRFTISRDNAKNTVYLHMNSLKTEDTAVYYCAAVFVTQSFIYDYYYWGQGTQVTVSS	high polyreactivity
QVQLVESGGGLVQAGGSLRLSCAASGFTFLNYAMGWYRQAPGKERELVAAISFSTGRTYYADSVKGRFTISRDNAKNTVYLQMNSLKPEDTAVYYCYVLHRSDSGYYYRYDYWGQVTQVTVSS	high polyreactivity
QVQLVESGGGLVQAGGSLRLSCAASGFTFVAYAMGWYRQAPGKERELVAAITWSGSRTYYADSVKGRFTISRDNAKNTVYLQMNSLKPEDTAVYYCAAGKTEGHYGYWGQGTQVTVSS	high polyreactivity
QVQLVESGGGLVQAGGSLRLSCAASGSIFSPYAMGWYRQAPGKERELVAAISFRASTTYYADSVKGRFTISRDNAKNTVYLQMNSLKPEYTAVYYCAKKRPGFLRYGSIGEFQYDYWGQGTQVTVSS	low polyreactivity
QVQLVESGGGLVQAGGSLRLSCAASGSIFRSNSMGWYRQAPGKERELVAAISSRGGSTYYADSVKGRFTISRDNAKNTVYLQMNSLKPEDTAVYYCYKDRYTVISYDEYDYWGQGTQVTVSS	high polyreactivity
QVQLVESGGGLVQAGGSLRFSCAASGFIFTYNAMGWYRQAPGKERELVAAITRNGVSTHYADSVKGRFTISRDNAKNSVYLQMNSLKPEDTAVYYCAADPRGWRHYYWGQGTQVTVSS	low polyreactivity
QVQLQESGGGLVQAGGTLRLSCAASGSFSADEDMGWYRQAQGKEREFVAGISVGGNTNYADSVKGRFTISRENAKNTVYLQINSLKPEDTAVYYCAVLQDVYDALDYWAQGTQVTVSS	high polyreactivity
QVQLVESGGGLVQAGGSLRLSCAASGLIFDKYAMGWYRQAPGKERELVAAITRSSGTTYYADSVKGSFTISRDNAKNTVYLQMNSLKPEDTAVYYCATDVDKSLYDYWGQGTQVTVSS	low polyreactivity
QVQLVESGGRLVQAGGSLRLSCAASGRTFYRYVMGWYRQAHGQVRELVAAISEGGGSTFYADSVKGRFTISRDNAKNTVYLQLNSLKPEDTAVYYCAADYYVRGGFFRYDYWGQGTQVTVSS	low polyreactivity
QVQLVESGGGLVQAGGSLRLSCAASGFIYNAMGWYRQAPGKERELVAAISYSGGSTYYADSVKGRFTISRDNAKNTVYLQMNILKPEDTAVYYCAAGYYPFNYWGQGTQVTVSS	high polyreactivity
QVQLVESGGGLVQAGGSIRLSCAASGFIFYVYAMGRSRQAPGKERELVAAISGGGDSTYYADSVKGRFTTSRDNAKNTVYLQMNSLKPEDTAVYYCATRRYPEVVNGESGYWGQGTQVTVSS	low polyreactivity
QVQLVESGGGLVQAGGSLRLSCAASGITFRFNARVWYRQEPGKEREFVAAITYSGDSTYYADSVKGRFTISRDNAKNTVYLQMNSLKPEDTAVYYCAADYYAISRRIFYYWGQGTQVTVSS	low polyreactivity
QVHLVESGGGLVQAGGILRLSCSAYGSIFDVNAKGWYRQSPGKERELVAAISDSGGSTYYADSVKGRFTISRDNAKNTVYLQMNSLKPEDTSVYYCNADWYWYNYYDFDYWGQGTQVTVSS	low polyreactivity
QVQLVESGGGLVQAGGSLRLSCAASGRIFSPYAMGWYRQAPGKERELVAAITRNGGRTYYADSVKGRFTISRDNAKNTVYLQMNSLKPEDTAVYYCAAAKQSGNDYWGQGTQVTVSS	low polyreactivity
QVQLVESGGGLVQAGGSLRLSCATSGSIFVFNAMGWYRQAPGKERELVAAIDTSDDITYYADSVKGRFTISRDNAKNTVYLQMNSLKPEDTAVYYCNAYYTYRFNYWGQGTQVTVSS	high polyreactivity
QVQLVESGGGLVQAGGSLRLSCAASGRTFSYYAMGCYRQAPGKERELVAAISQRGGSTYYADSVKGRFTISRDNAKNTVYLQMNSLKPEDTAVYYCAVLVSRYRYRVLDDYWGQGTQVTVSS	high polyreactivity
